Measured values as given in patent US20080138335A1 (Kyowa Kirin, published 2008).

B1: 4D11-G3[R435H] (antibody, V domains shown)
VH: QLQLQESGPGLLKPSETLSLTCTVSGGSISSPGYYGGWIRQPPGKGLEWIGSIYKSGSTYHNPSLKSRVTISVDTSKNQFSLKLSSVTAADTAVYYCTRPVVRYFGWFDPWGQGTLVTVSS
VL: AIQLTQSPSSLSASVGDRVTITCRASQGISSALAWYQQKPGKAPKLLIYDASNLESGVPSRFSGSGSGTDFTLTISSLQPEDFATYYCQQFNSYPTFGQGTKVEIK
notes: One-amino acid variant of 4D11-G3; also called IgG3[R435H]; N5KG3-R435H; not shown: human IgG3 heavy chain constant region, from vector N5KG3
B2: 341-G [2/2/1/2] (antibody)
heavy: QVQLQQSGPGLVKPSQTLSLTCAISGDSVSSNSATWNWIRQSPSRDLEWLGRTYYRSKWYRDYVGSVKSRIIINPDTSNNQFSLQLNSVTPEDTAIYYCTRAQWLGGDYPYYYSMDVWGQGTTVTVSS
VL: EIVLTQSPATLSLSPGERATLSCRASQSVSSYLAWYQQKPGQAPRLLIYDASNRATGIPARFSGSGSGTDFTLTISSLEPEDFAVYYCQQRSNTFGPGTKVDIK
notes: also called IgG[2/2/1/2]; N5KG2212; not shown: human IgG2 heavy chain constant region, CH1 and hinge domains (EU 118-237), from vector N5KG2; human IgG1 heavy chain constant region, CH2 domain (EU 238-340), from vector N5KG1 by way of N5KG2211; human IgG2 heavy chain constant region, CH3 domain (EU 341-446), from vector N5KG2
B3: 341-G [2/2/2/1] (antibody)
heavy: B2 heavy
VL: B2 VL
notes: also called IgG[2/2/2/1]; N5KG2221; not shown: human IgG2 heavy chain constant region, CH1, hinge and CH2 domains (EU 118-340), from vector N5KG2; human IgG1 heavy chain constant region, CH3 domain (EU 341-446), from vector N5KG1

Target: T1, CD40 expressed on Ramos [ATCC] cells (UniProt P25942 21-277, limits assumed)
T1 construct: whole, on cells; Target of all flow cytometry and CD95 assays; endogenous CD40 on the Ramos cell line
T1 sequence (P25942 21-277 limits assumed): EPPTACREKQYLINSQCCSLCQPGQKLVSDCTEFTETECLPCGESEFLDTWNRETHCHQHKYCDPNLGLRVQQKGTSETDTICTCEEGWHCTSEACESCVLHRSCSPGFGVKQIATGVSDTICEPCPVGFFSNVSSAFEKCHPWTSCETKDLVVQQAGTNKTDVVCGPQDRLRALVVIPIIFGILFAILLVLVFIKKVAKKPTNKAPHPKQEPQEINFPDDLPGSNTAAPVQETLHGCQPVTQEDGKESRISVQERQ
Assay: flow cytometry (FACS) on Ramos cells expressing CD40, R-PE anti-human antibody

Row | Binder | binding result
1 | B1 | binds
2 | B2 | binds
3 | B3 | binds
